The text below walks through data of US20180339042A1.

Test [1] addresses human GITR, membrane bound (human) (UniProt Q9Y5U5). Description: cell-based or functional assay.
For test [2], the target named is activated T cells (UniProt Q9Y5U5). Briefly: FACS binding, activated T cells; isotype control. In general terms: Flow cytometry measures light scatter and fluorescence of single cells or particles in a stream.
activated T cells, sequence (Q9Y5U5 26-241): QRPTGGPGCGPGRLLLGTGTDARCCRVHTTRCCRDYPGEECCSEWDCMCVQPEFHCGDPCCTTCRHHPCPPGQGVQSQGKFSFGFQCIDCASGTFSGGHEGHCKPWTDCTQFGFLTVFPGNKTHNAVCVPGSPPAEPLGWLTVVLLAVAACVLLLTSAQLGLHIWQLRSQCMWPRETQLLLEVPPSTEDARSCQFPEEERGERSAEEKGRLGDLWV

human GITR, membrane bound (human), sequence (Q9Y5U5 26-241): as above

In test [1], hIgG1 Isotype Control (antibody) yielded an NFKB signaling (phospho-p65), CD4+ T cells, Emax (%) of 4% and an NFKB signaling (phospho-p65), CD8+ T cells, Emax (%) of 6%.
Consider unrelated hIgG1, for which the EC50 in test [2] is 132 nM.
On the same count and under the same terms, to unrelated hIgG2 belongs 6.72 nM.

In general, EC50 refers to the concentration needed to bring the measured effect to its halfway point.
